Reference: the Human Domainome abundance scans (Beltran et al. 2025)
± gives the uncertainty stated by the source.

B1: Zinc finger homeobox protein 3, residues 2244 to 2299; numbered along this chain, Q15911 (parent)
chain: SSRTRFTDYQLRVLQDFFDANAYPKDDEFEQLSNLLNLPTRVIVVWFQNARQKARK

Variants of: B1
Experiment: abundance fitness (aPCA) (normalised: wild type 0, dead -1); higher = more abundant; growth selection in yeast, the domain comes from the species named
Settings: Homo sapiens
SSRTRFTDYQLRVLQDFFDANAYPKDDEFEQLSNLLNLGTRVIVVWFQNARQKARK [P39G] gave an abundance fitness of -0.297 ± 0.09. Variant SSRTRFTDYQLRVLQDFFDANAYPKDDEFEQLSNLLNLDTRVIVVWFQNARQKARK [P39D] has an abundance fitness of 0.196 ± 0.098. SSRTRFTDYQLRVLQDFFDANAYPKDDEFEQLSNLLNLTTRVIVVWFQNARQKARK [P39T] showed an abundance fitness of -0.209 ± 0.087. With SSRTRFTDYQLRVLQDFFDANAYPKDDEFEQLSNLLNLRTRVIVVWFQNARQKARK [P39R] the abundance fitness was -0.258 ± 0.082. Work on SSRTRFTDYQLRVLQDFFDANAYPKDDEFEQLSNLLNLLTRVIVVWFQNARQKARK [P39L] yielded an abundance fitness of -0.786 ± 0.091. Variant SSRTRFTDYQLRVLQDFFDANAYPKDDEFEQLSNLLNLQTRVIVVWFQNARQKARK [P39Q] has an abundance fitness of -0.028 ± 0.11. Work on SSRTRFTDYQLRVLQDFFDANAYPKDDEFEQLSNLLNLWTRVIVVWFQNARQKARK [P39W] yielded an abundance fitness of -1.08 ± 0.23. Variant SSRTRFTDYQLRVLQDFFDANAYPKDDEFEQLSNLLNLSTRVIVVWFQNARQKARK [P39S] has an abundance fitness of 0.035 ± 0.073. In the case of SSRTRFTDYQLRVLQDFFDANAYPKDDEFEQLSNLLNLKTRVIVVWFQNARQKARK [P39K], the abundance fitness is reported as -0.197 ± 0.17. With SSRTRFTDYQLRVLQDFFDANAYPKDDEFEQLSNLLNLATRVIVVWFQNARQKARK [P39A] the abundance fitness was -0.342 ± 0.095. Variant SSRTRFTDYQLRVLQDFFDANAYPKDDEFEQLSNLLNLHTRVIVVWFQNARQKARK [P39H] has an abundance fitness of -0.149 ± 0.082. SSRTRFTDYQLRVLQDFFDANAYPKDDEFEQLSNLLNLNTRVIVVWFQNARQKARK [P39N] gave an abundance fitness of -0.157 ± 0.098. In the case of SSRTRFTDYQLRVLQDFFDANAYPKDDEFEQLSNLLNLYTRVIVVWFQNARQKARK [P39Y], the abundance fitness is reported as -0.99 ± 0.12. SSRTRFTDYQLRVLQDFFDANAYPKDDEFEQLSNLLNLPTREIVVWFQNARQKARK [V42E] showed an abundance fitness of 0.174 ± 0.11. SSRTRFTDYQLRVLQDFFDANAYPKDDEFEQLSNLLNLPTRKIVVWFQNARQKARK [V42K] showed an abundance fitness of -0.036 ± 0.15. SSRTRFTDYQLRVLQDFFDANAYPKDDEFEQLSNLLNLPTRRIVVWFQNARQKARK [V42R] showed an abundance fitness of -0.083 ± 0.082. With SSRTRFTDYQLRVLQDFFDANAYPKDDEFEQLSNLLNLPTRCIVVWFQNARQKARK [V42C] the abundance fitness was -0.112 ± 0.13. Work on SSRTRFTDYQLRVLQDFFDANAYPKDDEFEQLSNLLNLPTRGIVVWFQNARQKARK [V42G] yielded an abundance fitness of -0.056 ± 0.087. Work on SSRTRFTDYQLRVLQDFFDANAYPKDDEFEQLSNLLNLPTRTIVVWFQNARQKARK [V42T] yielded an abundance fitness of 0.186 ± 0.15. For SSRTRFTDYQLRVLQDFFDANAYPKDDEFEQLSNLLNLPTRLIVVWFQNARQKARK [V42L], the abundance fitness was 0.039 ± 0.099. For SSRTRFTDYQLRVLQDFFDANAYPKDDEFEQLSNLLNLPTRMIVVWFQNARQKARK [V42M], the abundance fitness was -0.059 ± 0.13. In the case of SSRTRFTDYQLRVLQDFFDANAYPKDDEFEQLSNLLNLPTRWIVVWFQNARQKARK [V42W], the abundance fitness is reported as -0.146 ± 0.11. SSRTRFTDYQLRVLQDFFDANAYPKDDEFEQLSNLLNLPTRAIVVWFQNARQKARK [V42A] gave an abundance fitness of -0.045 ± 0.11. SSRTRFTDYQLRVLQDFFDANAYPKDDEFEQLSNLLNLPTRHIVVWFQNARQKARK [V42H] showed an abundance fitness of 0.022 ± 0.19. For SSRTRFTDYQLRVLQDFFDANAYPKDDEFEQLSNLLNLPTRNIVVWFQNARQKARK [V42N], the abundance fitness was 0.003 ± 0.18. SSRTRFTDYQLRVLQDFFDANAYPKDDEFEQLSNLLNLPTRDIVVWFQNARQKARK [V42D] gave an abundance fitness of 0.055 ± 0.19. SSRTRFTDYQLRVLQDFFDANAYPKDDEFEQLSNLLNLPTRQIVVWFQNARQKARK [V42Q] gave an abundance fitness of -0.028 ± 0.15. For SSRTRFTDYQLRVLQDFFDANAYPKDDEFEQLSNLLNLPTRIIVVWFQNARQKARK [V42I], the abundance fitness was -0.022 ± 0.33. SSRTRFTDYQLRVLQDFFDANAYPKDDEFEQLSNLLNLPTRYIVVWFQNARQKARK [V42Y] gave an abundance fitness of -0.134 ± 0.17. For SSRTRFTDYQLRVLQDFFDANAYPKDDEFEQLSNLLNLPTRPIVVWFQNARQKARK [V42P], the abundance fitness was 0.026 ± 0.14. SSRTRFTDYQLRVLQDFFDANAYPKDDEFEQLSNLLNLPTCVIVVWFQNARQKARK [R41C] gave an abundance fitness of -0.002 ± 0.1. In the case of SSRTRFTDYQLRVLQDFFDANAYPKDDEFEQLSNLLNLPTVVIVVWFQNARQKARK [R41V], the abundance fitness is reported as 0.108 ± 0.081. Variant SSRTRFTDYQLRVLQDFFDANAYPKDDEFEQLSNLLNLPTFVIVVWFQNARQKARK [R41F] has an abundance fitness of -0.011 ± 0.091. SSRTRFTDYQLRVLQDFFDANAYPKDDEFEQLSNLLNLPTPVIVVWFQNARQKARK [R41P] gave an abundance fitness of -0.046 ± 0.09. For SSRTRFTDYQLRVLQDFFDANAYPKDDEFEQLSNLLNLPTLVIVVWFQNARQKARK [R41L], the abundance fitness was -0.075 ± 0.074. Work on SSRTRFTDYQLRVLQDFFDANAYPKDDEFEQLSNLLNLPTAVIVVWFQNARQKARK [R41A] yielded an abundance fitness of 0.022 ± 0.079. SSRTRFTDYQLRVLQDFFDANAYPKDDEFEQLSNLLNLPTQVIVVWFQNARQKARK [R41Q] showed an abundance fitness of 0.018 ± 0.12. Work on SSRTRFTDYQLRVLQDFFDANAYPKDDEFEQLSNLLNLPTGVIVVWFQNARQKARK [R41G] yielded an abundance fitness of 0.057 ± 0.079. For SSRTRFTDYQLRVLQDFFDANAYPKDDEFEQLSNLLNLPTHVIVVWFQNARQKARK [R41H], the abundance fitness was 0.117 ± 0.087. For SSRTRFTDYQLRVLQDFFDANAYPKDDEFEQLSNLLNLPTSVIVVWFQNARQKARK [R41S], the abundance fitness was 0.021 ± 0.073. Work on SSRTRFTDYQLRVLQDFFDANAYPKDDEFEQLSNLLNLPTDVIVVWFQNARQKARK [R41D] yielded an abundance fitness of 0.173 ± 0.1. Variant SSRTRFTDYQLRVLQDFFDANAYPKDDEFEQLSNLLNLPTNVIVVWFQNARQKARK [R41N] has an abundance fitness of 0.195 ± 0.093. For SSRTRFTDYQLRVLQDFFDANAYPKDDEFEQLSNLLNLPTMVIVVWFQNARQKARK [R41M], the abundance fitness was 0.005 ± 0.1. With SSRTRFTDYQLRVLQDFFDANAYPKDDEFEQLSNLLNLPTWVIVVWFQNARQKARK [R41W] the abundance fitness was -0.167 ± 0.14. For SSRTRFTDYQLRVLQDFFDANAYPKDDEFEQLSNLLNLPTYVIVVWFQNARQKARK [R41Y], the abundance fitness was -0.119 ± 0.096. SSRTRFTDYQLRVLQDFFDANAYPKDDEFEQLSNLLNLPTIVIVVWFQNARQKARK [R41I] gave an abundance fitness of 0.052 ± 0.091. Variant SSRTRFTDYQLRVLQDFFDANAYPKDDEFEQLSNLLNLPTKVIVVWFQNARQKARK [R41K] has an abundance fitness of 0.074 ± 0.12.
